Drawing on US20240207421A1, “NERVE TARGETING PEPTIDES AND METHODS OF USE” (ALUME BIOSCIENCES, INC., priority 2020, published 2024), this text covers Count for 103 substances.

The first assay addresses T1, Human Myelin Basic Protein (Homo sapiens, UniProt P02686). Briefly: phage display, NGS count.
Details: not given
Target sequence in this assay (P02686 135-304 limits assumed): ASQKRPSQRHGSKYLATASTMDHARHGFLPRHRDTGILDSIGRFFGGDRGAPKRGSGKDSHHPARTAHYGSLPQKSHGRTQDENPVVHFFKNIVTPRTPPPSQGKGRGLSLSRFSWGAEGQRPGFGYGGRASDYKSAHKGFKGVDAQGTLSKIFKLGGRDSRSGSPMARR
Take SSFYVAY (peptide): the Count is 6. Same read-out and setting: for QGTLFDT (peptide) the value was 7. VSFTLEP (peptide) showed a Count of 7. Consider VRGTPNH (peptide), for which the Count amounted to 6.

AKFTMWV (peptide) had a Count of 6. The same measure, in the same setting: with WPDLRIL (peptide) the figure was 7; with NSSPHQI (peptide), 7. On the same count and under the same terms, for AQFLTIY (peptide) the value was 6; for YLPPPLP (peptide), 7; for SLDHLRL (peptide), 6. On the same count and under the same terms, for WDLPQNR (peptide) the value was 6; for GVAEVGL (peptide), 6.

VLSPYHN (peptide): the Count is 6. Still for that read-out and setting: for GRHTDVV (peptide) the value was 6; for FVLPNKN (peptide), 8.

For VAHQRVS (peptide), the Count came out at 8. For QYWDILG (peptide), the Count was determined as 6. KNSIAPR (peptide): the Count came to 8. Still for that read-out and setting: with VPTLRIP (peptide) the figure was 8; with LVPPVNH (peptide), 6; with AQLGAFR (peptide), 6. Consider SISKIRT (peptide), for which the Count came out at 7. Same read-out and setting: with QKALPQT (peptide) the figure was 6; with SPPRFIP (peptide), 8. For the substance SIRMTEI (peptide), the Count worked out at 7.

The substance LITHPQL (peptide) yielded a Count of 6. Same read-out and setting: for NLTYLRF (peptide) the value was 6.

SYRSMAP (peptide) gave a Count of 6.

SYVTVFR (peptide) registered a Count of 6. As to DSQEKSV (peptide), the Count is 6. Same read-out and setting: for NGPNSLQ (peptide) the value was 6.

ELKSLRF (peptide) gave a Count of 6.

In turn, WSPRWPS (peptide) displayed a Count of 7.

Substance VGTFWTR (peptide) came in with a Count of 6. On the same count and under the same terms, with SNAERWR (peptide) the figure was 9; with IPYSQMP (peptide), 6; with SEGLTLL (peptide), 6. Still for that read-out and setting: with AISWKGF (peptide) the figure was 6; with LFRRVTE (peptide), 7; with HPWSHPN (peptide), 6. Turning to HPWLGNR (peptide), the Count was 9. The same measure, in the same setting: with HQMRTML (peptide) the figure was 6. SLWQTLR (peptide) gave a Count of 6.

As to MDLSLKP (peptide), the Count was found to be 10. Still for that read-out and setting: with MPSLKHQ (peptide) the figure was 8; with TPQVMLK (peptide), 8.

In turn, KIITTKS (peptide) had a Count of 6. On to VVDMSTY (peptide), for which the Count came out at 7.

YPYVPIY (peptide) had a Count of 6. The same measure, in the same setting: for RGHPSQL (peptide) the value was 6; for GEPALVT (peptide), 6; for RVIPSTT (peptide), 6. On the same count and under the same terms, for SAVLMPP (peptide) the value was 6; for SRHLPPL (peptide), 6; for VIRTAAM (peptide), 6. The substance MTNHGNA (peptide) showed a Count of 7. FSAGVGK (peptide) showed a Count of 7.

Turning to QTSIMSG (peptide), the Count was 6. Still for that read-out and setting: for TGSVSKQ (peptide) the value was 6. On the same count and under the same terms, with ETHYKIA (peptide) the figure was 6. On the same count and under the same terms, with TPLYLSS (peptide) the figure was 7; with LTKSLNH (peptide), 7.

The next assay addresses T1, Human Myelin Basic Protein. The assay can be described thus: Phage display library screening (Example 2, Python script analysis), binding to Human Myelin Basic Protein. The arrangement: Enzo 200-606-M001 from human; purchased Enzo 200-606-M001; host or cells: human brain (tissue-derived). The note with it: R3 Myelin Basic Protein; combined unique sequence count, Python/R script analysis. The method, then:
Phage display library screens were used to identify peptides that bind to target proteins (including specific laminin trimers) that are expressed in human nerves, as described in Table 3. These screens were also carried out to identify peptides that could bind selectively to nerves versus muscle. Such peptides could therefore be useful for systemic in-vivo labeling of nerves during fluorescence assisted surgery. Specifically, m 13 phage libraries expressing 7 or 12 random amino acid peptides, or a cyclic peptide CX7C, on the N-terminus of the minor coat protein pIII (New England Biolabs; NEB) were processed through multiple rounds of selection for binding to target proteins expressed in nerves, or to excised human nerves, nerve extracts, or muscle, as described further below.
For screening against the specified target proteins in Table 1, including LN211, LN411, LN421, and LN521, the phage library was processed by up to 4 binding and wash cycles. For selection, phage libraries were incubated for up to 24 hours at 4° C. in 96 well plates that had been coated with one of the target proteins. Plates were then washed with PBS and phage were eluted using 0.2M glycine pH 2.0. Phage supernatants where then neutralized with Tris pH 9.0 prior to plating on TGI bacteria and LB agar plates. Colonies were counted to determine titer followed by DNA preparation of pools of phage and NextGen sequencing. After rounds of selection, phage were pooled and amplified for iterative selection. Phage that were bound at each round were sequenced. NextGen sequencing of pools after 2, 3 and 4 rounds of selection was used to isolate candidate sequences that were analyzed further to identify those that specifically bound each unique target protein.
Python Script Analysis: For all NEB sequence datasets, a python script was used to translate, trim, and filter the peptide sequences. The script translated the nucleotide sequences, translating amber codons as glutamine in peptide sequences, and then trimmed the end sequences that come from the vector. Secondly, the script combined the unique counts of trimmed peptides with identical sequences. […] Another python script was used to group peptides from different assays according to protein target (Myelin Protein Zero, Myelin Proteolipid Protein, Myelin Basic Protein, and Nidogen-2) and also combine the unique sequence counts for each peptide. An R script was written to merge the peptide sequences from different data files and determine peptides specific for each protein target but absent from different protein binding datasets. Peptide sequences were ranked by unique sequence count.
Target sequence in this assay (P02686 134-304): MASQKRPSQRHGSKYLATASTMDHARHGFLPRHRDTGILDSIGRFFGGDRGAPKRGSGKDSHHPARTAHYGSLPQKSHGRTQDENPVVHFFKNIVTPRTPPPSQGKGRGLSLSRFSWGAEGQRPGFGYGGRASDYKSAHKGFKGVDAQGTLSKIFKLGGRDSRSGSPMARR
For “FQLSYET (R3 Myelin Basic Protein-binding peptide)”, the Count was 6. Still for that read-out and setting: for “IGTRWHQ (R3 Myelin Basic Protein-binding peptide)” the value was 6; for “HPWLGNR (R3 Myelin Basic Protein-binding peptide)”, 9. On the same count and under the same terms, with “NPTDTNK (R3 Myelin Basic Protein-binding peptide)” the figure was 8; with “SYTLSRS (R3 Myelin Basic Protein-binding peptide)”, 7. Still for that read-out and setting: with “QQAHLQS (R3 Myelin Basic Protein-binding peptide)” the figure was 8; with “AQFLTIY (R3 Myelin Basic Protein-binding peptide)”, 6. Regarding “HMAGVNQ (R3 Myelin Basic Protein-binding peptide)”, the Count worked out at 7.

Consider “NTSLSFK (R3 Myelin Basic Protein-binding peptide)”, for which the Count was 8. As to “SPKPDIP (R3 Myelin Basic Protein-binding peptide)”, the Count was 6. On the same count and under the same terms, for “ASNTSKG (R3 Myelin Basic Protein-binding peptide)” the value was 7. The same measure, in the same setting: for “SIAEVLGLWRNV (R3 Myelin Basic Protein-binding peptide)” the value was 7; for “AQLGAFR (R3 Myelin Basic Protein-binding peptide)”, 6. On the same count and under the same terms, for “GRHTDVV (R3 Myelin Basic Protein-binding peptide)” the value was 6. Take “MPSLKHQ (R3 Myelin Basic Protein-binding peptide)”: the Count is 8. Regarding “LPPQISR (R3 Myelin Basic Protein-binding peptide)”, the Count was determined as 8. In the case of “KGQPLFR (R3 Myelin Basic Protein-binding peptide)”, the Count turned out to be 7.

Take “SRPTRVP (R3 Myelin Basic Protein-binding peptide)”: the Count was 9. On the same count and under the same terms, for “LMLPQLE (R3 Myelin Basic Protein-binding peptide)” the value was 6. The same measure, in the same setting: with “LELHQNV (R3 Myelin Basic Protein-binding peptide)” the figure was 6; with “WSPRWPS (R3 Myelin Basic Protein-binding peptide)”, 7. Still for that read-out and setting: with “TQMTMDS (R3 Myelin Basic Protein-binding peptide)” the figure was 10; with “VLSPYHN (R3 Myelin Basic Protein-binding peptide)”, 6; with “TRIPILL (R3 Myelin Basic Protein-binding peptide)”, 6. As for “VSFTLEP (R3 Myelin Basic Protein-binding peptide)”, the Count turned out to be 7. Turning to “SSFYVAY (R3 Myelin Basic Protein-binding peptide)”, the Count came out at 6. On the same count and under the same terms, with “SIRMTEI (R3 Myelin Basic Protein-binding peptide)” the figure was 7. On the same count and under the same terms, with “RGHPSQL (R3 Myelin Basic Protein-binding peptide)” the figure was 6. In the case of “TSRLVST (R3 Myelin Basic Protein-binding peptide)”, the Count was found to be 8. Same read-out and setting: for “FSAGVGK (R3 Myelin Basic Protein-binding peptide)” the value was 7; for “VVDMSTY (R3 Myelin Basic Protein-binding peptide)”, 7; for “HAHWARL (R3 Myelin Basic Protein-binding peptide)”, 6.

Consider “SVGLPTK (R3 Myelin Basic Protein-binding peptide)”, for which the Count stood at 6.

“INFPFAV (R3 Myelin Basic Protein-binding peptide)”: the Count is 6. The same measure, in the same setting: with “TSPPLAH (R3 Myelin Basic Protein-binding peptide)” the figure was 8; with “TPVLWLP (R3 Myelin Basic Protein-binding peptide)”, 6; with “DVRIWTL (R3 Myelin Basic Protein-binding peptide)”, 6.

For the substance “ESPYPHS (R3 Myelin Basic Protein-binding peptide)”, the Count stood at 7. On the same count and under the same terms, with “SSGMLSK (R3 Myelin Basic Protein-binding peptide)” the figure was 7; with “NLKLWTR (R3 Myelin Basic Protein-binding peptide)”, 7; with “MPLLELP (R3 Myelin Basic Protein-binding peptide)”, 7.
